Source: patent publication US9770469B2, “Methods of reprogramming renal cells” (Tel HaShomer Medical Research Infrastructure and Services …, priority 2009, dated 2017)

B1: DKK1: Wnt pathway antagonist (R&D systems) (protein, UniProt O94907 32-266, looked up)
Dickkopf-related protein 1: TLNSVLNSNAIKNLPPPLGGAAGHPGSAVSAAPGILYPGGNKYQTIDNYQPYPCAEDEECGTDEYCASPTRGGDAGVQICLACRKRRKRCMRHAMCCPGNYCKNGICVSSDQNHFRGEIEETITESFGNDHSTLDGYSRRTTLSSKMYHTKGQEGSVCLRSSDCASGLCCARHFWSKICKPVLKEGQVCTKHRRKGSHGLEIFQRCYCGEGLSCRIQKDHHQASNSSRLHTCQRH
B2: sFRP1: Wnt pathway antagonist (R&D systems) (protein, UniProt Q8N474 32-314, looked up)
Secreted frizzled-related …: SEYDYVSFQSDIGPYQSGRFYTKPPQCVDIPADLRLCHNVGYKKMVLPNLLEHETMAEVKQQASSWVPLLNKNCHAGTQVFLCSLFAPVCLDRPIYPCRWLCEAVRDSCEPVMQFFGFYWPEMLKCDKFPEGDVCIAMTPPNATEASKPQGTTVCPPCDNELKSEAIIEHLCASEFALRMKIKEVKKENGDKKIVPKKKKPLKLGPIKKKDLKKLVLYLKNGADCPCHQLDNLSHHFLIMGRKVKSQYLLTAIHKWDKKNKEFKNFMKKMKNHECPTFQSVFK

What was measured:
[1] = system: human adult kidney cells; experiment: qRT-PCR after Wnt antagonists DKK1/sFRP1 with or without VPA; type: cell-based; details: DKK1 3 μg/ml or sFRP1 7 μg/ml 72 h; for Osr1 expression, Wnt antagonist combined with VPA / Six2 expression, Wnt antagonist combined with VPA: VPA 4 mM last 24 h; for Osr1 expression, Wnt antagonist alone: no VPA
Procedure: (§1) Cell Treatment: Cells were treated for 24 hours with growth medium supplemented with 1, 2, or 4 mM VPA (Sigma) or with H2O for control sample. Otherwise, cells were treated for 24 hours with growth medium supplemented with the combination of 75 μM TSA (Sigma) and 250 μM 5-AZA (Sigma) or with 100% Ethanol and Acetic Acid (Acetic Acid: H2O 1:1) for control sample. […] 24 hours prior to harvesting VPA at a concentration of 4 mM was added to the cell culture.
(§2) Quantitative Reverse Transcription-PCR: Total RNA from kidney tissue cultured cells was isolated using the TRIZOL reagent (Invitrogen) according to the manufacturer's protocols. cDNA synthesis was carried out using Verso kit (Thermo scientific) with Random primers. Quantitative RT PCR was performed using an ABI7900HT sequence detection system (Perkin-Elmer/Applied Biosystems) in the presence of SYBR green (SYBR green PCR kit; Qiagen). Each analysis reaction was performed in duplicates or triplicates. GapDH was used as an endogenous control throughout all experimental analyses. Analysis was performed using the −ΔΔCt method, which determines fold changes in gene expression relative to a comparator sample.

[2] = system: human fetal kidney cells; experiment: as above; type: cell-based
Procedure: as §1, §2

[3] = fetal kidney cells, DKK1 3 μg/ml or sFRP1 7 μg/ml 72 h, VPA 4 mM last 24 h
[4] = fetal kidney cells, DKK1 3 μg/ml or sFRP1 7 μg/ml 72 h, no VPA

Molecule	Osr1 expression, Wnt antagonist combined with VPA [1]	Six2 expression, Wnt antagonist combined with VPA [1]	Osr1 expression, Wnt antagonist alone [1]	Osr1 expression, Wnt antagonist combined with VPA [2, 3]	Osr1 expression, Wnt antagonist alone [2, 4]	Six2 expression, Wnt antagonist alone ([2]; FK cells, DKK1 3 μg/ml or sFRP1 7 μg/ml 72 h, no VPA)	Six2 expression, Wnt antagonist combined with VPA ([2]; fetal kidney cells, sFRP1 7 μg/ml 72 h, VPA 4 mM last 24 h)
B1	synergistic affect	synergistic effect	little effect	synergistic affect	little effect	–	–
B2	synergistic affect	synergistic effect	little effect	synergistic affect	little effect	elevated Six2 levels	synergistic effect
